Results reported in publication PMC12350670 (2025).

Columns and labels:
[1] = molecular target: H4-Fc (anti-FAP VNAR H4 fused to the Fc of human IgG1) (nurse shark (Ginglyomostoma cirratum)); experiment: BLI
[2] = molecular target: NGS2405-Fc (anti-FAP VNAR NGS2405 fused to the Fc of human IgG1) (nurse shark (Ginglyomostoma cirratum)); experiment: BLI

Kd [1]: 14.2 nM
Kd [2]: 79.5 nM
B1: recombinant mouse FAP (mFAP) (enzyme)
chain: MKTWLKTVFGVTTLAALALVVICIVLRPSRVYKPEGNTKRALTLKDILNGTFSYKTYFPNWISEQEYLHQSEDDNIVFYNIETRESYIILSNSTMKSVNATDYGLSPDRQFVYLESDYSKLWRYSYTATYYIYDLQNGEFVRGYELPRPIQYLCWSPVGSKLAYVYQNNIYLKQRPGDPPFQITYTGRENRIFNGIPDWVYEEEMLATKYALWWSPDGKFLAYVEFNDSDIPIIAYSYYGDGQYPRTINIPYPKAGAKNPVVRVFIVDTTYPHHVGPMEVPVPEMIASSDYYFSWLTWVSSERVCLQWLKRVQNVSVLSICDFREDWHAWECPKNQEHVEESRTGWAGGFFVSTPAFSQDATSYYKIFSDKDGYKHIHYIKDTVENAIQITSGKWEAIYIFRVTQDSLFYSSNEFEGYPGRRNIYRISIGNSPPSKKCVTCHLRKERCQYYTASFSYKAKYYALVCYGPGLPISTLHDGRTDQEIQVLEENKELENSLRNIQLPKVEIKKLKDGGLTFWYKMILPPQFDRSKKYPLLIQVYGGPCSQSVKSVFAVNWITYLASKEGIVIALVDGRGTAFQGDKFLHAVYRKLGVYEVEDQLTAVRKFIEMGFIDEERIAIWGWSYGGYVSSLALASGTGLFKCGIAVAPVSSWEYYASIYSERFMGLPTKDDNLEHYKNSTVMARAEYFRNVDYLLIHGTADDNVHFQNSAQIAKALVNAQVDFQAMWYSDQNHGISSGRSQNHLYTHMTHFLKQCFSLSD
modifications: biotin (EZ-link NHS-PEG4-biotin)
